The values that follow come from US20040161419A1, “Placental stem cells and uses thereof” (priority 2002, published 2004).

In data set [1] the test system is placental stem cells.
Method: The cells were cultured for either 7-10 days or until the cultures grew to confluence. The cells were trypsinized and reseeded in 6 well plates. The cells were subjected to different culture conditions, having varying growth factors supplementing the DMEM or MEM based medium. […] Placental stem cells were cultured for an additional 14 days. At the end of 14 days, the cells were evaluated for the expression of human albumin, CYP3A4, A1AT, or C/EBP-alpha.
Data set [2] has as its system placental stem cells. The data set is described as follows: Culture in the presence or absence of EGF (growth curve). In kind it is cell-based, human. The conditions noted are these: EGF 10 ng/ml versus absence of EGF. The procedure:
A human placenta was obtained from an uncomplicated elective caesarean section. The whole placenta was placed in a sterilized 1000 ml cup and washed with Hank's Balanced Salt Solution (HBSS) containing penicillin G (100 U/ml), streptomycin (100 μg/ml), and amphotericin B (0.25 μg/ml). The umbilical cord was cut and the whole placenta was cut in half at the point of attachment of the umbilical cord. The amnion layer was peeled from the underlying chorion layer of the placenta by gentle stripping with a sterile scalpel, starting from the cut edge (middle of the placental body) and working outward. The amnion was washed with HBSS (without antibiotics) and rinsed with 0.05% Trypsin-EDTA. 0.05% Trypsin-EDTA was added to approximately twice the volume of the tissue in a 50 cc Falcon tube and incubated at 37° C. for 20 min on shaker in a 5% CO2 incubator. The tissue is transferred to a new tube with 0.05% Trypsin-EDTA. Media was added to remaining supernatant in the tube to stop trypsinization and centrifuged at 800 rpm for 10 min at 4° C. The pellet was resuspended in DMEM, 10% FBS, 1 mM Sodium Pyruvate, EGF (10 ng/ml), penicillin G (100 U/ml), streptomycin (100 μg/ml), and amphotericin B (0.25 μg/ml). The trysinization step was repeated up to a total of 3 times. The cells released by each trypsinization were plated separately or mixed in one tube after passing through a 100 μm cell strainer. […]

B1: EGF: epidermal growth factor, media supplement (protein, UniProt P01133 23-1207, looked up)
Pro-epidermal growth factor: PQHWSCPEGTLAGNGNSTCVGPAPFLIFSHGNSIFRIDTEGTNYEQLVVDAGVSVIMDFHYNEKRIYWVDLERQLLQRVFLNGSRQERVCNIEKNVSGMAINWINEEVIWSNQQEGIITVTDMKGNNSHILLSALKYPANVAVDPVERFIFWSSEVAGSLYRADLDGVGVKALLETSEKITAVSLDVLDKRLFWIQYNREGSNSLICSCDYDGGSVHISKHPTQHNLFAMSLFGDRIFYSTWKMKTIWIANKHTGKDMVRINLHSSFVPLGELKVVHPLAQPKAEDDTWEPEQKLCKLRKGNCSSTVCGQDLQSHLCMCAEGYALSRDRKYCEDVNECAFWNHGCTLGCKNTPGSYYCTCPVGFVLLPDGKRCHQLVSCPRNVSECSHDCVLTSEGPLCFCPEGSVLERDGKTCSGCSSPDNGGCSQLCVPLSPVSWECDCFPGYDLQLDEKSCAASGPQPFLLFANSQDIRHMHFDGTDYGTLLSQQMGMVYALDHDPVENKIYFAHTALKWIERANMDGSQRERLIEEGVDVPEGLAVDWIGRRFYWTDRGKSLIGRSDLNGKRSKIITKENISQPRGIAVHPMAKRLFWTDTGINPRIESSSLQGLGRLVIASSDLIWPSGITIDFLTDKLYWCDAKQSVIEMANLDGSKRRRLTQNDVGHPFAVAVFEDYVWFSDWAMPSVMRVNKRTGKDRVRLQGSMLKPSSLVVVHPLAKPGADPCLYQNGGCEHICKKRLGTAWCSCREGFMKASDGKTCLALDGHQLLAGGEVDLKNQVTPLDILSKTRVSEDNITESQHMLVAEIMVSDQDDCAPVGCSMYARCISEGEDATCQCLKGFAGDGKLCSDIDECEMGVPVCPPASSKCINTEGGYVCRCSEGYQGDGIHCLDIDECQLGEHSCGENASCTNTEGGYTCMCAGRLSEPGLICPDSTPPPHLREDDHHYSVRNSDSECPLSHDGYCLHDGVCMYIEALDKYACNCVVGYIGERCQYRDLKWWELRHAGHGQQQKVIVVAVCVVVLVMLLLLSLWGAHYYRTQKLLSKNPKNPYEESSRDVRSRRPADTEDGMSSCPQPWFVVIKEHQDLKNGGQPVAGEDGQAADGSMQPTSWRQEPQLCGMGTEQGCWIPVSSDKGSCPQVMERSFHMPSYGTQTLEGGVEKPHSLLSANPLWQQRALDPPHQMELTQ
modifications: Pro-epidermal growth factor
notes: epidermal growth factor, media supplement
Consider B1, for which, in the data set on placental stem cells [1], the “liver specific gene expression (albumin, CYP3A4, A1AT, C/EBP-alpha)” value (“liver specific gene expression” for short) is recorded as “enhance liver specific gene expression”. The “proliferation of placental stem cells” value in the data set with placental stem cells [2] is listed as “proliferate robustly”; in the data set with placental stem cells [2] (listed as Epidermal Growth Factor (EGF)) it was “grow significantly better”.

B2: FGF 4: fibroblast growth factor 4, media supplement (protein, UniProt P08620 31-206, looked up)
Fibroblast growth factor 4: APTAPNGTLEAELERRWESLVALSLARLPVAAQPKEAAVQSGAGDYLLGIKRLRRLYCNVGIGFHLQALPDGRIGGAHADTRDSLLELSPVERGVVSIFGVASRFFVAMSSKGKLYGSPFFTDECTFKEILLPNNYNAYESYKYPGMFIALSKNGKTKKGNRVSPTMKVTHFLPRL
Regarding B2, the “liver specific gene expression” value with placental stem cells [1] is on record as “did not enhance liver specific gene expression”.

B3: FGF 7: fibroblast growth factor 7, media supplement (protein, UniProt P21781 32-194, looked up)
Fibroblast growth factor 7: CNDMTPEQMATNVNCSSPERHTRSYDYMEGGDIRVRRLFCRTQWYLRIDKRGKVKGTQEMKNNYNIMEIRTVAVGIVAIKGVESEFYLAMNKEGKLYAKKECNEDCNFKELILENHYNTYASAKWTHNGGEMFVALNQKGIPVRGKKTKKEQKTAHFLPMAIT
On to B3, for which, in the data set on placental stem cells [1], the “liver specific gene expression” value is “did not enhance liver specific gene expression”.
